Results published in article PMC9938351, “Structural insights into ribonucleoprotein dissociation by nucleocapsid protein interacting with non-structural protein 3 in SARS-CoV-2” (Communications Biology, 2020).

B1: SARS-CoV Ubl1 of Nsp3 (domain or fragment)
chain: APIKGVTFGEDTVWEVQGYKNVRITFELDERVDKVLNEKCSVYTVESGTEVTEFACVVAEAVVKTLQPVSDLLTNMGIDLDEWSVATFYLFDDAGEENFSSRMYCSFYPPD
B2: MERS-CoV Ubl1 of Nsp3 (domain or fragment)
chain: APVKKVAFGGDQVHEVAAVRSVTVEYNIHAVLDTLLASSSLRTFVVDKSLSIEEFADVVKEQVSDLLVKLLRGMPIPDFDLDDFIDAPCYCFNAEGDASWSSTMIFSLHPVEC

Experiments:
SARS-CoV N protein = SARS-CoV N protein (SARS-CoV, UniProt P59595 1-422); assay: ITC; details: both partners purified
MERS-CoV N protein = MERS-CoV N protein (MERS-CoV, UniProt K9N4V7 1-411); assay: ITC; details: both partners purified

SARS-CoV N protein, sequence (P59595 whole entry): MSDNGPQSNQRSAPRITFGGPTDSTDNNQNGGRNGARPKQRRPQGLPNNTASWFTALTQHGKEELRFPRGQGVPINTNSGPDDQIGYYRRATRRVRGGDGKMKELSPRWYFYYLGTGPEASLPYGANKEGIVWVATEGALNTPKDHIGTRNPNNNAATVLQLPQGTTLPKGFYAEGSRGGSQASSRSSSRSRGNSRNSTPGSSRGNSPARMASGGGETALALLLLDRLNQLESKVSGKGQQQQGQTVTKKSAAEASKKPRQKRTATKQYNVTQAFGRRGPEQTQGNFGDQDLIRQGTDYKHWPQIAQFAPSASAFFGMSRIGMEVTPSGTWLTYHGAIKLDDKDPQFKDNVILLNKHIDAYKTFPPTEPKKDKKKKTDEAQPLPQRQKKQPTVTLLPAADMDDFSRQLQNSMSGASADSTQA

Binder	Kd (SARS-CoV N protein)	dH (SARS-CoV N protein)	stoichiometry N (SARS-CoV N protein)	Kd (MERS-CoV N protein)	dH (MERS-CoV N protein)	stoichiometry N (MERS-CoV N protein)
B1	800 ± 200 nM	-13.4 ± 0.382 kcal/mol	1 ± 0.02			
B2				2300 ± 600 nM	6.09 ± 0.311 kcal/mol	0.82 ± 0.02
